First the molecules themselves.
B1: CT aptamer clone 7 (ssRNA)
RNA: GGGAGAGCAUUGCUCGUUAGUGUCGUCUUGACCUUUGCUGGUCAUGGUCGUAAAGCUAGUGACUCGGAUCAUCUAGG
B2: CT aptamer clone 11 (ssRNA)
RNA: GGGAGAGCAUUGCUCGUUAGUGUCGUCUCAUCGAAUGGUCGGUGUGGUCGUUAAGCUAGUGACUCGGAUCAUCUAGG
B3: CT aptamer clone 8 (ssRNA)
RNA: GGGAGAGCAUUGCUCGUUAGUGUCGUCUAAUCGGUUUUCCGGUUUGGUCGUUGAGCUAGUGACUCGGAUCAUCUAGG
B4: CT aptamer clone 3 (ssRNA)
RNA: GGGAGAGCAUUGCUCGUUAGUGUCGUCUUAAACUUCGUGUUUUUGGUCGUUGUAGCUAGUGACUCGGAUCAUCUAGG
B5: CT aptamer clone 4 (ssRNA)
RNA: GGGAGAGCAUUGCUCGUUAGUGUCGUCUUCAAUCAUGCAUUGUUGGUCGUUGAAGCUAGUGACUCGGAUCAUCUAGG
B6: CT aptamer clone 1 (ssRNA)
RNA: GGGAGAGCAUUGCUCGUUAGUGUCGUCUCGGAGUUUAUCUCCGUGGUCGUUGAAGCUAGUGACUCGGAUCAUCUAGG
B7: CT aptamer clone 6 (ssRNA)
RNA: GGGAGAGCAUUGCUCGUUAGUGUCGUCUCGAAUCGAACUUUCGUGGUCGUUAAAGCUAGUGACUCGGAUCAUCUAGG
B8: CT aptamer clone 9 (ssRNA)
RNA: GGGAGAGCAUUGCUCGUUAGUGUCGUCUCGGGAUUUUUCCCGUGGUCGUUCAUAGCUAGUGACUCGGAUCAUCUAGG
B9: CT aptamer clone 5 (ssRNA)
RNA: GGGAGAGCAUUGCUCGUUAGUGUCGUCUCGCGAACGUUAAUCGCGUGGUCGUGAGCUAGUGACUCGGAUCAUCUAGG
B10: CT aptamer clone 10 (ssRNA)
RNA: GGGAGAGCAUUGCUCGUUAGUGUCGUCUCGAGUUGUGAUUACUCGUGGUCGUAAGCUAGUGACUCGGAUCAUCUAGG
B11: CT aptamer clone 2 (ssRNA)
RNA: GGGAGAGCAUUGCUCGUUAGUGUCGUCUUGGUAAUUCCCUUUCUGGUCGUUUAAGCUAGUGACUCGGAUCAUCUAGG
B12: W2.S1.1_R6F-1 (ssRNA)
RNA: GGGAGAGCAUUGCUCGUUAGUGGCGUUACAGCAGUUGCCACAAGGCACGUUUUAGCUAGUGACUCGGAUCAUCUAGG
modifications: 2'-OMe at all nucleotides
B13: W2.S1.1_R6P-1 (ssRNA)
RNA: GGGAGAGCAUUGCUCGUUAGUGGAGCCUAUGGUUGUUGUGUGCUCCUCGCGGGAGCUAGUGACUCGGAUCAUCUAGG
modifications: 2'-OMe at all nucleotides

Here are results for 13 molecules from US20220056425, “RNA PO[…] FOR […] OF MODIFIED RNA” (GUARDIAN THERAPEUTICS, LLC, published 2022).

The first data set concerns the target Cholera toxin (holotoxin and/or B subunit) (UniProt P01555;P01555;P01556 P01555:19-212,P01555:213-258,P01556:22-124).
Experiment: not given
For the molecule B1, the binding result was “binds”.

For the molecule B2, the binding result is “binds”.

For B3, the binding result was “binds”.

Take B4: the binding result is reported as “binds”.

With B5, the binding result is reported as “binds”.

Turning to B6, the binding result is given as “binds”.

Regarding B7, the binding result is reported as “binds”.

On to B8, for which the binding result was “binds”.

Take B9: the binding result is reported as “binds”.

Take B10: the binding result was “binds”.

On to B11, for which the binding result is recorded as “binds”.

In a further data set the target is KRAS (UniProt P01116 P01116:1-189). Kind of data set: plate binding compared to BSA; only central region printed.
On to B12, for which the binding result is listed as “binds”.

Regarding B13, the binding result was “binds”.
